Data from PMC10397247.
One block for each binder: values may come before it.

Experiments:
4H3915-AA = molecular target: T1, 4H3915-AA; test: two-hybrid library CCmax;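 also: natural log of median RNA to DNA barcode read ratio; higher means stronger binding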
T1 chain: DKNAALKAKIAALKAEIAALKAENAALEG

4H3974-AA = molecular target: T2, 4H3974-AA; test: two-hybrid library CCmax; conditions: mean of both orientations;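 also: natural log of median RNA to DNA barcode read ratio; higher means stronger binding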
T2 chain: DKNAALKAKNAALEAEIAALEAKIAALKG

4H432-AA = molecular target: T3, 4H432-AA; test: two-hybrid library CCmax; conditions: mean of both orientations;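 also: natural log of median RNA to DNA barcode read ratio; higher means stronger binding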
T3 chain: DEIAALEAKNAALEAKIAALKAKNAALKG

4H446-AA = molecular target: T4, 4H446-AA; test: two-hybrid library CCmax; conditions: mean of both orientations;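 also: natural log of median RNA to DNA barcode read ratio; higher means stronger binding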
T4 chain: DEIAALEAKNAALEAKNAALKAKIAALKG

4H63-AA = molecular target: T5, 4H63-AA; test: two-hybrid library CCmax; conditions: mean of both orientations;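 also: natural log of median RNA to DNA barcode read ratio; higher means stronger binding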
T5 chain: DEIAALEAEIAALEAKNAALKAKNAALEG

4H883-bH = molecular target: T6, 4H883-bH; test: two-hybrid library CCNG1;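 also: natural log of median RNA to DNA barcode read ratio; higher means stronger binding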
T6 chain: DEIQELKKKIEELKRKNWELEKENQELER

4H908-bH = molecular target: T7, 4H908-bH; test: two-hybrid library CCNG1
T7 chain: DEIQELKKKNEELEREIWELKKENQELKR

4H918-bH = molecular target: T8, 4H918-bH; test: two-hybrid library CCNG1
T8 chain: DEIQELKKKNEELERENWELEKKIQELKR

4H953-bH = molecular target: T9, 4H953-bH; test: two-hybrid library CCNG1
T9 chain: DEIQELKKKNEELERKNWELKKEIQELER

4H967-bH = molecular target: T10, 4H967-bH; test: two-hybrid library CCNG1
T10 chain: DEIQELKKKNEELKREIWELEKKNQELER

4H3631-AA = molecular target: T11, 4H3631-AA; test: two-hybrid library CCmax
T11 chain: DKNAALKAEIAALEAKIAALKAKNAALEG

4H3697-AA = molecular target: T12, 4H3697-AA; test: two-hybrid library CCmax; conditions: mean of both orientations
T12 chain: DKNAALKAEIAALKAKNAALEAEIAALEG

4H3718-AA = molecular target: T13, 4H3718-AA; test: two-hybrid library CCmax; conditions: mean of both orientations
T13 chain: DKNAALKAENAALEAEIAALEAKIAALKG

4H384-AA = molecular target: T14, 4H384-AA; test: two-hybrid library CCmax; conditions: mean of both orientations
T14 chain: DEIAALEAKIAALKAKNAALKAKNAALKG

4H3865-AA = molecular target: T15, 4H3865-AA; test: two-hybrid library CCmax; conditions: mean of both orientations
T15 chain: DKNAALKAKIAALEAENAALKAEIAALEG

4H697-AA = molecular target: T16, 4H697-AA; test: two-hybrid library CCmax; conditions: mean of both orientations
T16 chain: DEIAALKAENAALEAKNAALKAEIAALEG

4H982-AA = molecular target: T17, 4H982-AA; test: two-hybrid library CCmax; conditions: mean of both orientations
T17 chain: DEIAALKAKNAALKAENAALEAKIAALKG

APC9182-AA = molecular target: T18, APC9182-AA; test: two-hybrid library CCmax
T18 chain: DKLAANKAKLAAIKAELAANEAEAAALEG

APC9291-AA = molecular target: T19, APC9291-AA; test: two-hybrid library CCmax; conditions: mean of both orientations
T19 chain: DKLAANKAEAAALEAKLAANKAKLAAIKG

APC9806-AA = molecular target: T20, APC9806-AA; test: two-hybrid library CCmax; conditions: mean of both orientations
T20 chain: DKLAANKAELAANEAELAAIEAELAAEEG

4H391-AA = molecular target: T21, 4H391-AA; test: two-hybrid library CCmax
T21 chain: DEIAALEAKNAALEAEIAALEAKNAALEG

4H3920-AA = molecular target: T22, 4H3920-AA; test: two-hybrid library CCmax; conditions: mean of both orientations
T22 chain: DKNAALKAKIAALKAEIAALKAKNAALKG

4H3939-AA = molecular target: T23, 4H3939-AA; test: two-hybrid library CCmax; conditions: mean of both orientations
T23 chain: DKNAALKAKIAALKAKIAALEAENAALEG

4H428-AA = molecular target: T24, 4H428-AA; test: two-hybrid library CCmax; conditions: mean of both orientations
T24 chain: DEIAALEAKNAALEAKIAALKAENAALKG

4H478-AA = molecular target: T25, 4H478-AA; test: two-hybrid library CCmax; conditions: mean of both orientations
T25 chain: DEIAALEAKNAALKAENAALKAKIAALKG

4H497-AA = molecular target: T26, 4H497-AA; test: two-hybrid library CCmax; conditions: mean of both orientations
T26 chain: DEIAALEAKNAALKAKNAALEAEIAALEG

4H656-AA = molecular target: T27, 4H656-AA; test: two-hybrid library CCmax; conditions: mean of both orientations
T27 chain: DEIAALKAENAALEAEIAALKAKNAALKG

4H675-AA = molecular target: T28, 4H675-AA; test: two-hybrid library CCmax; conditions: mean of both orientations
T28 chain: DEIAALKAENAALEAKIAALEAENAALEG

4H971-AA = molecular target: T29, 4H971-AA; test: two-hybrid library CCmax; conditions: mean of both orientations
T29 chain: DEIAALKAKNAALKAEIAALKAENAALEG

B2: 4H883-bH (peptide)
chain: DEIQELKKKIEELKRKNWELEKENQELER
interaction score (4H883-bH): 0.33
interaction score (4H908-bH): -0.306
interaction score (4H918-bH): -0.51
interaction score (4H953-bH): -0.831
interaction score (4H967-bH): -0.709

B5: 4H391-AA (peptide)
chain: DEIAALEAKNAALEAEIAALEAKNAALEG
interaction score (4H391-AA): -1.79
interaction score (4H3920-AA): -1.23
interaction score (4H3939-AA): -1.7
interaction score (4H428-AA): -0.212
interaction score (4H478-AA): -1.59
interaction score (4H497-AA): -2
interaction score (4H656-AA): -0.583
interaction score (4H675-AA): -1.11
interaction score (4H971-AA): -1.02

B6: 4H908-bH (peptide)
chain: DEIQELKKKNEELEREIWELKKENQELKR
interaction score (4H908-bH): 0.057
interaction score (4H918-bH): -2.03
interaction score (4H953-bH): -0.842
interaction score (4H967-bH): -0.426

Second part, the binder after the results:

interaction score (4H3915-AA): -0.838
interaction score (4H3974-AA): -0.146
interaction score (4H432-AA): -1.16
interaction score (4H446-AA): -1.7
interaction score (4H63-AA): 0.485
B1: 4H3915-AA (peptide)
chain: DKNAALKAKIAALKAEIAALKAENAALEG

interaction score (4H3631-AA): 0.402
interaction score (4H3697-AA): -1.62
interaction score (4H3718-AA): 0.0628
interaction score (4H384-AA): -1.07
interaction score (4H3865-AA): -1.53
interaction score (4H697-AA): -1.8
interaction score (4H982-AA): -1.91
B3: 4H3631-AA (peptide)
chain: DKNAALKAEIAALEAKIAALKAKNAALEG

interaction score (APC9182-AA): -1.77
interaction score (APC9291-AA): -1.98
interaction score (APC9806-AA): -1.59
B4: APC9182-AA (peptide)
chain: DKLAANKAKLAAIKAELAANEAEAAALEG
